This is an account of results in the RNAGym collection of RNA variant scans (doi:10.7554/elife.90254).

First the molecules themselves.
B1: OR4K15 (parent)
chain: GUUAACGGUCAUAGGCCAUGGAAACUAGGAGCACCAUUUCGCUGCCAGUGAAGAAAUGAACAAAGAAAAUCUGGGCCAGGCAGGCAUCAAAAGAAAUAGUCUUGCGCUCAACCAGAAAGUCUGUAAUCAUUUUAAGGGUA

In this series the parent is B1. The experiment in a line: self-cleavage, relative activity (ratio to wild type); higher = more cleavage; in vitro, sequencing; the parent is a self-cleaving ribozyme.
As to A23U A30U, the self-cleavage amounted to 0.26. The same measure for U2C A27G: 0.85; for U12C U122C: 1.05; for U57C U108C: 0.01.

In the case of U39A A96U, the self-cleavage worked out at 1.71. As for U9C C45U, the self-cleavage was 1.07.

Take A22G A118U: the self-cleavage stood at 1.05. As for U2C A24C, the self-cleavage was found to be 1.16. For A33U A78G, the self-cleavage amounted to 0.29. On to A59U A96C, for which the self-cleavage is 0.81.

As to A24G A91G, the self-cleavage is 0.65. The same measure for U37C A118G: 1.36; for A118G U139G: 0.07; for G1A A13C: 1.66.

For U70A A116G, the self-cleavage is 0.59. The same measure for G29U A63G: 2.9.

On to A30U U49C, for which the self-cleavage amounted to 1.48. The figure for C10U G106C is 0.03.

Consider C34U G44A, for which the self-cleavage was found to be 1.66. As for U122C U124C, the self-cleavage turned out to be 0.67. For the variant G1U A94G, the self-cleavage is 0.76. For the variant U9C A89G, the self-cleavage stood at 1.45. Regarding A30U A86G, the self-cleavage is 1.87. As to A23G U43C, the self-cleavage is 1.38. As to G136C, the self-cleavage came out at 1.29. For the variant U38C G119U, the self-cleavage turned out to be 1.69. In the case of U120A A135G, the self-cleavage was determined as 1.1. As to A51C, the self-cleavage is 1.43.

Regarding A18U U39C, the self-cleavage stood at 1.81. In the case of A95G U102A, the self-cleavage was 2.24. For the variant A5U U122A, the self-cleavage turned out to be 1.48.

Regarding A63G U133C, the self-cleavage amounted to 1.18. Regarding G65A A140G, the self-cleavage was found to be 2.16. In the case of A116C U130C, the self-cleavage was 0.06. As to U2A A63U, the self-cleavage was determined as 1.62. Regarding U43A U102C, the self-cleavage came out at 2.2.

Regarding A11G A78G, the self-cleavage came to 0.54. Turning to U49C A94G, the self-cleavage worked out at 1.44.

In the case of A110G A111G, the self-cleavage is 0.02. The same measure for G14A A36G: 1.17; for U26C U132A: 0.61; for A33G C34A: 1.19. For the variant A59G U131C, the self-cleavage came out at 0.71. The figure for A27G A134G is 1.86; for A64G U122A it is 0.95; for A66U U100C it is 2.47. For G44U A95G, the self-cleavage is 1.73. The same measure for A54G A129G: 0.58; for A89G A95G: 1.87; for A89G U97A: 0.88.

Take U43C A69G: the self-cleavage was 0.94. With A78U U87C, the self-cleavage was found to be 0.31. Regarding U2G A69U, the self-cleavage is 0.94. Consider A66C A92G, for which the self-cleavage amounted to 1.21. The figure for G80A U102C is 0.42; for A22G A129G it is 0.61. As for A55G A135G, the self-cleavage worked out at 1.57.

For A118G U122A, the self-cleavage amounted to 0.79. As for A110U U120C, the self-cleavage was determined as 0.08. On to G15U A78G, for which the self-cleavage came out at 0.14.

Take A67G A125U: the self-cleavage is 0.11. As to A11U U19A, the self-cleavage came out at 1.38.

In the case of A60U C113U, the self-cleavage turned out to be 0.27. Regarding A98U U100C, the self-cleavage came to 2.47. The same measure for C46U U130C: 1.4; for C105U A111U: 0.01; for C77U C113U: 0.27. Take C101A A118G: the self-cleavage was 0.08. The figure for U19C A22U is 1.23; for C34U U139A it is 1.61. A52G U108G: the self-cleavage turned out to be 0.03. On to A51G C77U, for which the self-cleavage is 1.46. With A23U U72A, the self-cleavage was 0.41. The figure for U9A A110G is 0.22; for U19C U103C it is 0.66. C77A A96G: the self-cleavage was 1.

On to U130C A134G, for which the self-cleavage was 0.27. Consider A52G A69U, for which the self-cleavage came to 1.25. Take U127C U139C: the self-cleavage worked out at 0.89. As to A11G U97C, the self-cleavage is 1.42.

Consider A24G A94G, for which the self-cleavage turned out to be 1.47. Turning to C25G U108C, the self-cleavage was found to be 0.03.

Consider A5C A52G, for which the self-cleavage stood at 0.46.

On to U102A U120C, for which the self-cleavage turned out to be 0.37. The figure for U39A U72G is 0.3. As to A54G A56G, the self-cleavage stood at 1.01. As for A111G U127C, the self-cleavage is 0.01. Turning to U2C U97C, the self-cleavage stood at 0.55. With A24G G104U, the self-cleavage came out at 0.01. Consider G15U A126U, for which the self-cleavage was 0.79. For the variant U120A U133A, the self-cleavage is 1.81.

For the variant U38C A92G, the self-cleavage was determined as 1.97.

With U3C U26A, the self-cleavage is 1.76. As to A63G U108A, the self-cleavage is 0.01. As to A118U U131G, the self-cleavage was 0.62. The figure for A36G G65U is 1.06; for U97C G136U it is 1.55. Turning to A18U U108C, the self-cleavage was 0.01. Regarding A4G G138A, the self-cleavage came out at 0.99. Regarding C46U G138A, the self-cleavage came out at 1.91. Turning to A30G U87C, the self-cleavage is 1.39.

As to A24C A33G, the self-cleavage was determined as 1.14. In the case of A86C U127C, the self-cleavage turned out to be 0.83. Consider U49A A82G, for which the self-cleavage stood at 0.52.

For A68G U127G, the self-cleavage was found to be 1.35. As to A24U A91G, the self-cleavage stood at 1.09.

On to A55G A98C, for which the self-cleavage came to 1.25. The same measure for U38A A47U: 1.31.

A62U A64U: the self-cleavage came to 1.06. In the case of A4C A62G, the self-cleavage is 0.88.

Turning to A60G U70G, the self-cleavage stood at 1.65. The figure for C46U A86G is 1.41; for A5U A11G it is 1.49. In the case of U57G A68G, the self-cleavage amounted to 1.53. A47G A116C: the self-cleavage was 0.03. For A66G A68C, the self-cleavage came out at 1.13. Take U72C: the self-cleavage was 0.12. Take A13G U97C: the self-cleavage was 0.78.

Take A60C U87C: the self-cleavage was 1.18. As to A30G U100C, the self-cleavage was 1.93. The same measure for A56G U87A: 1.54. Turning to U57A A98C, the self-cleavage was 1.24.

With A117G C128A, the self-cleavage was 1.07. With A52U A91G, the self-cleavage amounted to 1.13.

As to A22G C76U, the self-cleavage was determined as 0.19. Regarding U9A A98G, the self-cleavage came to 0.34.

In the case of U26C A90G, the self-cleavage is 1.11.

With A55G U70C, the self-cleavage stood at 0.29.

With U100A U130C, the self-cleavage amounted to 0.09. The same measure for A30G A63U: 1.17; for A86G: 1.16; for U120A: 1.61. U19A U120G: the self-cleavage was 1.35.

Take A51G A110G: the self-cleavage amounted to 0.08.

For the variant G14A U122A, the self-cleavage came out at 1.16.

Consider G20A A56G, for which the self-cleavage turned out to be 1.66. On to U9A U108A, for which the self-cleavage was 0.

Turning to A95C A116G, the self-cleavage is 0.74. The same measure for G31A U139A: 1.78; for A89U U103C: 1.12. As to A24G U97C, the self-cleavage worked out at 0.1.

As for A22U A60G, the self-cleavage worked out at 1.29. U49A A140G: the self-cleavage came out at 1.41.

As to U37C A55G, the self-cleavage was determined as 1.59.

Take U57A A91G: the self-cleavage came to 0.54. For the variant U43C A56G, the self-cleavage was 1.18.

For the variant U9A A30G, the self-cleavage worked out at 0.98. In the case of C35U U70C, the self-cleavage came to 0.58. Turning to C35U U70A, the self-cleavage is 0.97. Turning to A51U A54G, the self-cleavage stood at 1.36. A68U U120C: the self-cleavage was found to be 1.1. In the case of C42A A69G, the self-cleavage worked out at 1.88.

On to A47U U131C, for which the self-cleavage was found to be 0.54. Take U19C C121A: the self-cleavage is 2.88. In the case of C32A A56G, the self-cleavage was determined as 0.28. The same measure for A54U A64G: 1.55; for A5U A118G: 0.83; for A69U A94G: 2.42. Take A129G U139A: the self-cleavage turned out to be 0.81. The figure for A47C U87C is 1.76; for A89G U124C it is 0.93; for A13G U102C it is 1.18.

U3A U57C: the self-cleavage came out at 1.14. The figure for G75A U87C is 0.14; for A69U U108C it is 0.02. U19C A55C: the self-cleavage was determined as 1.89. For the variant G28A A56G, the self-cleavage amounted to 1.49.
